Paper PMC6662305, “The basic helix‐loop‐helix transcription factor, OsPIL15, regulates grain size via directly targeting a purine permease gene OsPUP7 in rice”

Tests used:
[1] = molecular target: T1, OsPIL15-His (Oryza sativa L. cv. Nipponbare, UniProt Q0JNI9 1-637); experiment: EMSA; EMSA: Beyotime kit binding buffer (composition, salt and pH not stated), 30 min at room temperature, 6% native polyacrylamide gel; conditions: protein: recombinant; tags: His (pET28a); chain copies: 2; label: 3' biotin; blunt
T1 sequence: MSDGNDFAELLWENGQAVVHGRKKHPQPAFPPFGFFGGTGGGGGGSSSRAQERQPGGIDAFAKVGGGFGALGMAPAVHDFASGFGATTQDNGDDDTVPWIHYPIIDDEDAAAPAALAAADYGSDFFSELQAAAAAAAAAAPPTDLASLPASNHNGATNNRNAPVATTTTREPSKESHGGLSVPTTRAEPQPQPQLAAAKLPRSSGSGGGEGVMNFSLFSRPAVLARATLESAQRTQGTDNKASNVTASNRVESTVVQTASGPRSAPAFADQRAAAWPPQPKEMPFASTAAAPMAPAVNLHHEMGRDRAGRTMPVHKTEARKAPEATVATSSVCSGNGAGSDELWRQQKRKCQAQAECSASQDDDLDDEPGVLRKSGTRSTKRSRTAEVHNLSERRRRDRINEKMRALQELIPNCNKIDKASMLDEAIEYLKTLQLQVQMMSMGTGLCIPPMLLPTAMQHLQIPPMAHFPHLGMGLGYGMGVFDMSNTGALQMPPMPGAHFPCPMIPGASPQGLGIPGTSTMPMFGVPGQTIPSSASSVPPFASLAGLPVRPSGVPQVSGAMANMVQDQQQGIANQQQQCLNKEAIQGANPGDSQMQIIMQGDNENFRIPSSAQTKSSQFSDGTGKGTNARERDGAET

[2] = molecular target: T1, OsPIL15-His; experiment: EMSA; strong signal; EMSA: Beyotime kit binding buffer (composition, salt and pH not stated), 30 min at room temperature, 6% native polyacrylamide gel; conditions: protein: recombinant; tags: His (pET28a); chain copies: 2; label: 3' biotin; blunt

B1: Mutant probe 1 (dsDNA)
DNA 1: AATACAGCCGCGACTATCTC
DNA 2: GAGATAGTCGCGGCTGTATT
[1]
  binding result: no binding

B2: G-box probe (dsDNA)
DNA 1: TCTAATGACACGTGAGCAAGTCC
DNA 2: GGACTTGCTCACGTGTCATTAGA
[1]
  binding result: no binding

B3: N2-box probe (dsDNA)
DNA 1: TCTAATGACACGAGAGCAAGTCC
DNA 2: GGACTTGCTCTCGTGTCATTAGA
[1]
  binding result: no binding

B4: N1-box probe (dsDNA)
DNA 1: TCTAATGACACGCGAGCAAGTCC
DNA 2: GGACTTGCTCGCGTGTCATTAGA
[2]
  binding result: binds

B5: Mutant probe 2 (dsDNA)
DNA 1: AATACAGGCAGCCCTATCTC
DNA 2: GAGATAGGGCTGCCTGTATT
[1]
  binding result: no binding
